Measurements taken from patent US20180327746, “Alpha-AMYLASE-BINDING NUCLEIC ACID MOLECULE AND USE THEREOF” (NEC Solution Innovators, Ltd., published 2018).

B1: AML1243KR8m3s63Fw_s20 (ssDNA)
DNA: TACCTTAACGCCGCCTATTGCGAGGTGTGGCTAGTCGTTATAGGTCCACCGAGTTGCACCAAAAAAAAAAAAAAAAAAAA
modifications: KS9 modified T (formula 1) at underlined T, i.e. T 3' of the 5' primer region
B2: TYE665-Amy_258KK10R8m2 (ssDNA)
DNA: GGTTACGCCCAGGACACATTTCATTGATGGCATACTAAGGGTCGAGGAATTCGTAAGCTCGGTCTCCTCGGATAATC
modifications: KK10 modified T (formula 2) at double-underlined T, i.e. T 3' of the 5' primer region
B3: AML1243KR8m2s49 (ssDNA)
DNA: GGATACCTTAACGCCGCCTATTGCTATGAGTAGTGTTTGTAGGTCTGGCAAAAAAAAAAAAAAAAAAAA
modifications: KS9 modified T (formula 1) at underlined T, i.e. T 3' of the 5' primer region
B4: TYE665-AML1243KR8m3 (ssDNA)
DNA: GGATACCTTAACGCCGCCTATTGCGAGGTGTGGCTAGTCGTTATAGGTCCACCGAGTTGCACCCGTCTCGAAATC
modifications: KS9 modified T (formula 1) at underlined T, i.e. T 3' of the 5' primer region
B5: TYE665-AML1243KR8m2 (ssDNA)
DNA: GGATACCTTAACGCCGCCTATTGCTATGAGTAGTGTTTGTAGGTCTGGCATGCGAGTTGCACCCGTCTCGAAATC
modifications: KS9 modified T (formula 1) at underlined T, i.e. T 3' of the 5' primer region
B6: Amy_258KK10R8m4 (ssDNA)
DNA: GGTTACGCCCAGGACACATTTCTGTAGTGAAGTCCTGGTTGGCAAATTCATGGTAAGCTCGGTCTCCTCGGATAATCAAAAAAAAAAAAAAAAAAAA
modifications: KK10 modified T (formula 2) at double-underlined T, i.e. T 3' of the 5' primer region
B7: AML1243KR8m1s58_FW_s15 (ssDNA)
DNA: TAACGCCGCCTATTGTGAACGACGTGAATAGTGTTTGTGGGTCCGGAGTTAAAAAAAAAAAAAAAAAAAA
modifications: KS9 modified T (formula 1) at underlined T, i.e. T 3' of the 5' primer region
B8: Amy_258KK10R8m3 (ssDNA)
DNA: GGTTACGCCCAGGACACATTTCAGAGCGTAAACAGTCCTGGTTGGCAAATGTGTAAGCTCGGTCTCCTCGGATAATCAAAAAAAAAAAAAAAAAAAA
modifications: KK10 modified T (formula 2) at double-underlined T, i.e. T 3' of the 5' primer region

What was measured:
[1] = target: T1, alpha-amylase (Homo sapiens, UniProt P0DUB6 P0DUB6:16-511); assay: SPR; SPR buffer with 1 mM MgCl2, pH 7.4; Chi2 29.33; conditions: tags: none stated; commercial human alpha-amylase, Lee Biosolutions; label: 3' poly(dA)20 captured on biotin-poly(dT)20
T1 sequence: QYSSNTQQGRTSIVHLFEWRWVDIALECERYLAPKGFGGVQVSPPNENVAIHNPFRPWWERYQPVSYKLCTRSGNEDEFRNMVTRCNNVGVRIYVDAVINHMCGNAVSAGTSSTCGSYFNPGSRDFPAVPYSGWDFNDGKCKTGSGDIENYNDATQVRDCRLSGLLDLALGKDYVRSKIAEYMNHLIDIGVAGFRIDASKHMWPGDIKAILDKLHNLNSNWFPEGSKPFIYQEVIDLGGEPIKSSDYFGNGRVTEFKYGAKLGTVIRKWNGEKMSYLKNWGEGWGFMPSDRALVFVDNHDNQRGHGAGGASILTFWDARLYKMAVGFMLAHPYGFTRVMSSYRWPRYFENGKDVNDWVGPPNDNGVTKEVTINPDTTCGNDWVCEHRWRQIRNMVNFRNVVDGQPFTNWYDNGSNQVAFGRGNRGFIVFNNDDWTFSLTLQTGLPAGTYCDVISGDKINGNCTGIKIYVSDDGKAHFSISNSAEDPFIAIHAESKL
Description: (§1) Biotinylated poly(dT) at 5 μmol/L was injected to a flow cell of the sensor chip using ultrapure water (DDW), and the binding was allowed to proceed until the signal intensity (RU: Resonance Unit) reached about 900 RU. The biotinylated poly(dT) was prepared by biotinylating the 5′ end of 20-mer deoxythymidine. Then, the poly(dA)-added aptamer at 200 nmol/L was injected to the flow cell of the chip using an SPR buffer at a flow rate of 25 μL/min for 80 seconds, and the binding was allowed to proceed until the signal intensity reached about 800 RU. […] With 0 seconds being the start of the injection, the mean value of signal intensities from 115 seconds to 125 seconds was determined. […] Then, the value (B/A) obtained by dividing the protein binding measured value (B) by the aptamer immobilization measured value (A) was determined as a relative value (Relative Unit).
(§2) The binding ability of the aptamers was analyzed by SPR in the same manner as in Example 1, except that the concentration of the α-amylase in the specimen was set to a plurality of values. The concentration was set to 20 nmol/L, 10 nmol/L, 5 nmol/L, 2.5 nmol/L, and 1.25 nmol/L. Then, from the results obtained by the SPR analysis, the kinetic parameter and the chi-squared value were calculated.

[2] = target: T2, chromogranin A (CgA) (Homo sapiens, UniProt P10645 P10645:19-457); assay: capillary electrophoresis specificity control; conditions: tags: N-terminal His-tag; full length, Creative BioMart CHGA-26904TH; label: 5' TYE665
T2 sequence: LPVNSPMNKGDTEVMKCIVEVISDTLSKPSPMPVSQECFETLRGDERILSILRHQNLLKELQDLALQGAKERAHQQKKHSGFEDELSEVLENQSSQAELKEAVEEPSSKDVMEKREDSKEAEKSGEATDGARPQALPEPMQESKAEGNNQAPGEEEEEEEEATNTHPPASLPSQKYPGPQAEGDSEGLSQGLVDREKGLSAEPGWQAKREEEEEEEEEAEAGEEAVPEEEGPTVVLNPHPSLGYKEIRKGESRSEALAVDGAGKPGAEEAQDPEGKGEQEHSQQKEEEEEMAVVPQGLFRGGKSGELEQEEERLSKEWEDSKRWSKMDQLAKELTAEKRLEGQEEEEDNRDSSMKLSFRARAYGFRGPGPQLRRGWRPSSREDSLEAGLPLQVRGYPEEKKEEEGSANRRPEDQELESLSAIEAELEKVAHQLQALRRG
Description: (§3) Reaction solutions containing the labeled aptamer (SEQ ID NO: 1) were prepared. Each of the reaction solutions was subjected to CAE under the following conditions. The reaction solution was caused to migrate while separating the components therefrom, and the fluorescence at a maximum absorption wavelength (665 nm) of the fluorescent substance was measured. As the reaction solutions, the following four types of reaction solutions were used: a reaction solution 1 containing the labeled aptamer only; a reaction solution 2 containing the labeled aptamer and the α-amylase; a reaction solution 3 containing the labeled aptamer and the saliva; and a reaction solution 4 containing the labeled aptamer as the negative control and the saliva. In each of the reaction solutions, the concentration of the labeled aptamer was 200 nmol/L. In the reaction solution 2, the concentration of the α-amylase was 2 μmol/L. In the reaction solutions 3 and 4, the concentration of the saliva was 10%. The reminder of each of the reaction solutions was a buffer solution. The composition of the buffer solution was as follows: 40 mmol/L HEPES (pH 7.5), 125 mmol/L NaCl, 5 mmol/L KCl, and 1 mmol/L MgCl₂.
(§4) Preparation of the reaction solution 2 and the binding ability analysis by CAE were carried out in the same manner as in the above item (3), except that the labeled aptamers (SEQ ID NOs: 1, 2, 3, and 19) were used. Further, in order to examine the specificity of the labeled aptamers to the α-amylase, the binding ability analysis by CAE was performed in the same manner as in the case where the above-described reaction solution 2 was used, except that, instead of the α-amylase, human chromogranin A (CgA, recombinant full length protein, Creative BioMart, #CHGA-26904TH) or human IgA (secretory, Biomedicals, LLC-Cappel Products, #55905), each having a His-tag fused at the N terminus were used.

[3] = target: T1, alpha-amylase; assay: capillary electrophoresis; 200 nM aptamer, 2 uM amylase, 1 mM MgCl2; conditions: tags: none stated; commercial human alpha-amylase, Lee Biosolutions; label: 5' TYE665
Description: as §3, §4

[4] = target: T1, alpha-amylase; assay: SPR; SPR buffer with 1 mM MgCl2, pH 7.4; Chi2 18.8; conditions: tags: none stated; commercial human alpha-amylase, Lee Biosolutions; label: 3' poly(dA)20 captured on biotin-poly(dT)20
Description: as §1, §2

[5] = target: T1, alpha-amylase; assay: SPR; SPR buffer with 1 mM MgCl2, pH 7.4; Chi2 5.69; conditions: tags: none stated; commercial human alpha-amylase, Lee Biosolutions; label: 3' poly(dA)20 captured on biotin-poly(dT)20
Description: as §1, §2

[6] = target: T1, alpha-amylase; assay: SPR; 40 mM HEPES pH 7.4, 125 mM NaCl, 5 mM KCl, 1 mM MgCl2, 0.01% Tween 20; Chi2 2.68; conditions: tags: none stated; commercial human alpha-amylase, Lee Biosolutions; label: 3' poly(dA)20 captured on biotin-poly(dT)20
Description: as §1, §2

[7] = target: T1, alpha-amylase; assay: SPR; 400 nM amylase, 1 mM MgCl2, pH 7.4; conditions: tags: none stated; commercial human alpha-amylase, Lee Biosolutions; label: 3' poly(dA)20 captured on biotin-poly(dT)20
Description: The analysis of the binding ability was carried out using a ProteON XPR36 (BioRad) in accordance with its instructions for use.
First, as a sensor chip designed specifically for the ProteON, a streptavidin-immobilized chip (trade name: ProteOn NLC Sensor Chip, BioRad) was set in the ProteON XPR36. Biotinylated poly(dT) at 5 μmol/L was injected to a flow cell of the sensor chip using ultrapure water (DDW), and the binding was allowed to proceed until the signal intensity (RU: Resonance Unit) reached about 900 RU. The biotinylated poly(dT) was prepared by biotinylating the 5′ end of 20-mer deoxythymidine. Then, the poly(dA)-added aptamer at 200 nmol/L was injected to the flow cell of the chip using an SPR buffer at a flow rate of 25 μL/min for 80 seconds, and the binding was allowed to proceed until the signal intensity reached about 800 RU. […] Subsequently, the specimen was injected using the SPR buffer at a flow rate of 50 μL/min for 120 seconds, followed by washing performed by flowing the SPR buffer under the same conditions for 300 seconds. The concentration of the human α-amylase in the specimen was set to 400 nmol/L. Signal intensity measurement was performed concurrently with the injection of the specimen and the washing with the SPR buffer. With 0 seconds being the start of the injection, the mean value of signal intensities from 115 seconds to 125 seconds was determined. […] Then, the value (B/A) obtained by dividing the protein binding measured value (B) by the aptamer immobilization measured value (A) was determined as a relative value (Relative Unit).

Row | Binder | binding result [2] | binding result [3] | further results
1 | B1 |  |  | Kd [1]: 16.6 nM
2 | B2 | no binding | binds | 
3 | B3 |  |  | Kd [4]: 3.19 nM
4 | B4 | no binding | binds | 
5 | B5 | no binding | binds | 
6 | B6 |  |  | Kd [5]: 7.34 nM
7 | B7 |  |  | Kd [6]: 0.358 nM
8 | B8 |  |  | binding result [7]: binds
